In assay [1] the target is HGF receptor (c-met) on human cell lines of the central nervous system (T98G glioblastoma, GOTO and SCCH-26 neuroblastoma) (human) (UniProt P08581). The experiment in a line: ^125I-HGF binding on T98G, GOTO and SCCH-26 cells, Scatchard analysis (range told of the three cell lines).
Assay [2] has the same target. The assay can be described thus: ^125I-HGF saturation binding on SCCH-26 cells, Scatchard analysis.
The target is the same in assay [3]. The assay can be described thus: ^125I-HGF saturation binding on T98G cells, Scatchard analysis.
For assay [4] the target is unchanged. The assay can be described thus: ^125I-HGF saturation binding on GOTO cells, Scatchard analysis.

Chain of Human recombinant HGF (hepatocyte growth factor), radioiodinated (^125I-HGF) (P14210 32-728 limits assumed): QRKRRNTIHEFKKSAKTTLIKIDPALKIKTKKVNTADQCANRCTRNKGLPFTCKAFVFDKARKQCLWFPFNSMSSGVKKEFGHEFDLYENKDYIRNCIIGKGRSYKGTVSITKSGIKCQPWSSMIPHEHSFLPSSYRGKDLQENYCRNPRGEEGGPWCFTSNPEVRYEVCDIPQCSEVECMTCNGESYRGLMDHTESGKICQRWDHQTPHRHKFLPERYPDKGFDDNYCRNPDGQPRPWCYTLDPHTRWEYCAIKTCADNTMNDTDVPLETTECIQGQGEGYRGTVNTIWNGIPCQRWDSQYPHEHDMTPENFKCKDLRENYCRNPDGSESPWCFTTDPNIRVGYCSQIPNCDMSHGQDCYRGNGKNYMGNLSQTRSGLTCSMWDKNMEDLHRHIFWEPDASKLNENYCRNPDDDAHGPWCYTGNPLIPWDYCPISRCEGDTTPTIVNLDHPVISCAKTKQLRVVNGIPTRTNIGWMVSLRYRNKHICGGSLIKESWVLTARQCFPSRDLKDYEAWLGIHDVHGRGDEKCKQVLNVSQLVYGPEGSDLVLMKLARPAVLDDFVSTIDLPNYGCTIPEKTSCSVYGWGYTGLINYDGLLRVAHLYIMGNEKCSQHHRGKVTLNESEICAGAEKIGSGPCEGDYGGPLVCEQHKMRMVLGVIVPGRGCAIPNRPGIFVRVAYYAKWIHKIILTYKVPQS

As for “Human recombinant HGF (hepatocyte growth factor), radioiodinated (^125I-HGF) (from UniProt P14210 32-728) (ligand)”, the Kd was 0.03 to 0.04 nM in assay [1], 0.02 nM in assay [2], 0.031 nM in assay [3] and 0.03 nM in assay [4]. Moreover, the B max (sites/cell) in assay [2] is 60 sites/cell; in assay [3] it was 540 sites/cell; in assay [4] it was 120 sites/cell.

As usually defined, the Kd is a measure of binding affinity in units of concentration. A higher Kd goes with lower affinity.

For the origin of these results see patent US6699837.
